From patent US20260116920A1 (PEPTIDREAM, published 2026)
Starred links: 1 amine or outer side, 2 acyl side, 3 side chain; linkers in the order of their positions; H or OH if unused. Positions of bridges follow the written chain, without caps; N, C: chain ends. Non-standard residues stand in square brackets, D forms with d. Primed or numbered codes have the meaning given here. No end group written: not given here. *: point of attachment. E(PEG8Me) = (S)-30-amino-27-oxo-2,5,8,11,14,17,20,23-octaoxa-26-azahentriacontane-31-oic acid, COCCOCCOCCOCCOCCOCCOCCOCCNC(=O)CC[C@H](N[*:1])C(=O)[*:2]; Phe(4-OMe)(3) = (S)-2-amino-3-(4-methoxyphenyl)propanoic acid (source code F4OMe), COc1ccc(C[C@H](N[*:1])C(=O)[*:2])cc1; F4aao = (S)-2-amino-3-(4-(carboxymethoxy)phenyl)propanoic acid, O=C([C@H](Cc1ccc(OCC(=O)[*:3])cc1)N[*:1])[*:2]; Phe(4-OMe) = F4OMe = (S)-2-amino-3-(4-methoxyphenyl)propanoic acid, COc1ccc(C[C@H](N[*:1])C(=O)[*:2])cc1; Trp(1-CH2CO) = O=C([C@H](Cc1cn(CC(=O)[*:3])c2ccccc12)N[*:1])[*:2]; Phe(3-COOH) = N[C@@H](Cc1cccc(C(=O)O)c1)C(=O)O; Trp(7-aza) = N[C@@H](Cc1c[nH]c2ncccc12)C(=O)O; NH(CH2CH2O)8Me = COCCOCCOCCOCCOCCOCCOCCOCCN*; NMePhe(3-Cl) = CN[C@@H](Cc1cccc(Cl)c1)C(=O)O; 3Pal(6-NH2) = Nc1ccc(C[C@H](N)C(=O)O)cn1; NMe3Pal = CN[C@@H](Cc1cccnc1)C(=O)O; NMe4Pal = CN[C@@H](Cc1ccncc1)C(=O)O; NMeY = CN[C@@H](Cc1ccc(O)cc1)C(=O)O; 3Pal = N[C@@H](Cc1cccnc1)C(=O)O; 4Pal = N[C@@H](Cc1ccncc1)C(=O)O

B1: 894_0319 (peptide)
peptide: {CH2CO}-AV[NMePhe(3-Cl)]VWNY[4Pal]IIRRF[NMeY]C-NH2
modifications: thioether N-15; also: linker PEG4c
B2: 894_0322 (peptide)
peptide: Ac-AV[NMe3Pal]VWN[3Pal(6-NH2)][Phe(4-OMe)(3)]IIRRF[NMeY]C
modifications: thioether (positions not given here); not fully specified (C-terminus, bridges)
B3: 894_0369 (peptide)
peptide: {CH2CO}-AV[NMePhe(3-Cl)]VWN[3Pal(6-NH2)][F4aao]IIRR[4Pal][NMeY]C-NH2
modifications: thioether N-15; also: linker PEG4c
B4: 894_0365 (peptide)
peptide: {CH2CO}-AV[NMePhe(3-Cl)]VWNY[Phe(4-OMe)]IIRE(NH(CH2CH2O)8Me)[Phe(3-COOH)][NMeY]C-NH2
modifications: thioether N-15; also: linker PEG4c
B5: 894_0345 (peptide)
peptide: Ac-AV[NMePhe(3-Cl)]V[Trp(1-CH2CO)]NY[Phe(4-OMe)(3)]IIR[E(PEG8Me)][4Pal][NMeY]C
modifications: thioether (positions not given here); not fully specified (C-terminus, bridges)
B6: 894_0320 (peptide)
peptide: {CH2CO}-AV[NMePhe(3-Cl)]VWN[3Pal(6-NH2)][4Pal]IIRR[4Pal][NMeY]C-NH2
modifications: thioether N-15; also: linker PEG4c
B7: 894_0334 (peptide)
peptide: Ac-AV[NMePhe(3-Cl)]V[Trp(1-CH2CO)]NY[Phe(4-OMe)(3)]IIR[E(PEG8Me)]F[NMeY]C
modifications: thioether (positions not given here); not fully specified (C-terminus, bridges)
B8: 894_0347 (peptide)
peptide: Ac-AV[NMePhe(3-Cl)]V[Trp(1-CH2CO)]N[3Pal(6-NH2)][3Pal]IIRR[Phe(3-COOH)][NMeY]C
modifications: thioether (positions not given here); not fully specified (C-terminus, bridges)
B9: 894_0362 (peptide)
peptide: {CH2CO}-AV[NMePhe(3-Cl)]VWNY[F4aao]IIRE(NH(CH2CH2O)8Me)F[NMeY]C
modifications: thioether N-15; not fully specified (C-terminus)
B10: 894_0350 (peptide)
peptide: Ac-AV[NMePhe(3-Cl)]V[Trp(1-CH2CO)]NY[F4aao]IIRE(NH(CH2CH2O)8Me)[4Pal][NMeY]C
modifications: thioether (positions not given here); not fully specified (C-terminus, bridges)
B11: 894_0323 (peptide)
peptide: Ac-AV[NMe4Pal]VWN[3Pal(6-NH2)][Phe(4-OMe)(3)]IIRRF[NMeY]C
modifications: thioether (positions not given here); not fully specified (C-terminus, bridges)
B12: 894_0337 (peptide)
peptide: Ac-AV[NMePhe(3-Cl)]V[Trp(1-CH2CO)]N[3Pal(6-NH2)][F4aao]IIRRF[NMeY]C
modifications: thioether (positions not given here); not fully specified (C-terminus, bridges)
B13: 894_0348 (peptide)
peptide: Ac-AV[NMePhe(3-Cl)]V[Trp(1-CH2CO)]N[3Pal(6-NH2)][F4aao]IIRR[4Pal][NMeY]C
modifications: thioether (positions not given here); not fully specified (C-terminus, bridges)
B14: 894_0324 (peptide)
peptide: Ac-AV[NMePhe(3-Cl)]V[Trp(7-aza)]NY[Phe(4-OMe)(3)]IIRR[4Pal][NMeY]C
modifications: thioether (positions not given here); not fully specified (C-terminus, bridges)
B15: 894_0371 (peptide)
peptide: {CH2CO}-AV[NMePhe(3-Cl)]VWNY[3Pal]IIRE(NH(CH2CH2O)8Me)[4Pal][NMeY]C-NH2
modifications: thioether N-15; also: linker PEG4c
B16: 894_0339 (peptide)
peptide: Ac-AV[NMePhe(3-Cl)]V[Trp(1-CH2CO)]N[3Pal(6-NH2)][Phe(4-OMe)(3)]IIRR[Phe(3-COOH)][NMeY]C
modifications: thioether (positions not given here); not fully specified (C-terminus, bridges)
B17: 894_0351 (peptide)
peptide: {CH2CO}-AV[NMePhe(3-Cl)]V[Trp(1-CH2CO)]NY[3Pal]IIRE(NH(CH2CH2O)8Me)[4Pal][NMeY]C-NH2
modifications: thioether N-15; also: linker PEG4c
B18: 894_0368 (peptide)
peptide: {CH2CO}-AV[NMePhe(3-Cl)]VWN[3Pal(6-NH2)][F4aao]IIRR[Phe(3-COOH)][NMeY]C
modifications: thioether N-15; not fully specified (C-terminus)
B19: 894_0349 (peptide)
peptide: Ac-AV[NMePhe(3-Cl)]V[Trp(1-CH2CO)]N[3Pal(6-NH2)][F4aao]IIRR[Phe(3-COOH)][NMeY]C
modifications: thioether (positions not given here); not fully specified (C-terminus, bridges)
B20: 894_0341 (peptide)
peptide: Ac-AV[NMePhe(3-Cl)]V[Trp(1-CH2CO)]NY[3Pal]IIRR[Phe(3-COOH)][NMeY]C
modifications: thioether (positions not given here); not fully specified (C-terminus, bridges)
B21: 894_0340 (peptide)
peptide: Ac-AV[NMePhe(3-Cl)]V[Trp(1-CH2CO)]NY[3Pal]IIR[E(PEG8Me)]F[NMeY]C
modifications: thioether (positions not given here); not fully specified (C-terminus, bridges)
B22: 894_0344 (peptide)
peptide: Ac-AV[NMePhe(3-Cl)]V[Trp(1-CH2CO)]NY[Phe(4-OMe)(3)]IIR[E(PEG8Me)][Phe(3-COOH)][NMeY]C
modifications: thioether (positions not given here); not fully specified (C-terminus, bridges)
B23: 894_0352 (peptide)
peptide: {CH2CO}-AV[NMePhe(3-Cl)]V[Trp(1-CH2CO)]NY[3Pal]IIRE(NH(CH2CH2O)8Me)[Phe(3-COOH)][NMeY]C-NH2
modifications: thioether N-15; also: linker PEG4c
B24: 894_0343 (peptide)
peptide: Ac-AV[NMePhe(3-Cl)]V[Trp(1-CH2CO)]NY[F4aao]IIRR[4Pal][NMeY]C
modifications: thioether (positions not given here); not fully specified (C-terminus, bridges)
B25: 894_0370 (peptide)
peptide: {CH2CO}-AV[NMePhe(3-Cl)]VWNY[3Pal]IIRE(NH(CH2CH2O)8Me)[Phe(3-COOH)][NMeY]C-NH2
modifications: thioether N-15; also: linker PEG4c
B26: 894_0325 (peptide)
peptide: Ac-AV[NMePhe(3-Cl)]VWNY[Phe(4-OMe)(3)]IIRR[4Pal][NMe3Pal]C
modifications: thioether (positions not given here); not fully specified (C-terminus, bridges)

Target: T1, human transferrin receptor (hTfR) (human, UniProt P02786 89-760)
T1 construct: used as 0.5 uM hTfR dimer solution, immobilised on an NTA sensor chip (Ni capture plus EDC/NHS coupling); also called human TfR; TfR1
T1 sequence (P02786 89-760 limits assumed): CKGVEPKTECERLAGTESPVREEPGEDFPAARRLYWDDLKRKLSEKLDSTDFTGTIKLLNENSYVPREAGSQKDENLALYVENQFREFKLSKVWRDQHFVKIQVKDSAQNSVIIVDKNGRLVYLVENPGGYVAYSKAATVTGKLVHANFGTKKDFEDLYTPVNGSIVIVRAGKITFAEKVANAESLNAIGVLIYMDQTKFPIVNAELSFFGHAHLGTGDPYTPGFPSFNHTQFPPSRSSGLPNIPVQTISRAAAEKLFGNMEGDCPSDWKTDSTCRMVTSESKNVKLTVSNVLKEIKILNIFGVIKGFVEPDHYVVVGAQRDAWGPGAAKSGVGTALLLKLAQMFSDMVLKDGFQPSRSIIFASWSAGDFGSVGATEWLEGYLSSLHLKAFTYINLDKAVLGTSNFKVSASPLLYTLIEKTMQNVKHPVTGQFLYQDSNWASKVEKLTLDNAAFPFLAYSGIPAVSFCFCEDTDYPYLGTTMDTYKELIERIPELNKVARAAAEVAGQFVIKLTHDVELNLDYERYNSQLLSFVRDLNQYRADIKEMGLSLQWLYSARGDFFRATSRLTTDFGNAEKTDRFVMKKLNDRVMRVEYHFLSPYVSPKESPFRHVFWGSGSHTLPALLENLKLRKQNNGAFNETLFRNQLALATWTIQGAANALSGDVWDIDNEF
Experiment: SPR; B = KD 1-100 nM
Experimental: NTA sensor chip (Global Life Sciences Technologies Japan K.K.) was inserted into BiacoreT200 (Global Life Sciences Technologies Japan K.K.), then the priming operation was performed three times by using running buffer containing: 10 mM HEPES pH 8.0 (Nacalai Tesque, Inc.), 150 mM NaCl (Nacalai Tesque, Inc.), 0.05% Tween 20 (Nacalai Tesque, Inc.), 0.1% BSA (SIGMA-ALDRICH) and 1.0% DMSO (FUJIFILM Wako Pure Chemical Corporation), and equilibrated at a flow rate of 30 μL/min. 350 mM EDTA solution was reacted at a flow rate of 10 μL/min for 60 seconds, 0.5 mM […] solution (Kishida Chemical Co., Ltd.) was reacted at a flow rate of 10 μL/min for 60 seconds, and then the NTA sensor chip was washed with 3 mM EDTA solution (Nacalai Tesque, Inc.) at a flow rate of 10 μL/min for 60 seconds. After mixing 50 μL each of 60 mM EDC solution (Global Life Science Technologies Japan K.K.) and 650 mM NHS solution (Global Life Science Technologies Japan K.K.), the reaction was carried out at a flow rate of 10 μL/min for 420 seconds. 150 μL of 0.5 μM hTfR dimer solution was prepared by dilution with running buffer and reacted at a flow rate of 10 μL/min for 300 seconds to immobilize hTfR on the NTA sensor chip. For the human transferrin receptor (hTfR), recombinant hTfR described in Example 2 of WO2018/124121 was used. After immobilization, capping was performed by reacting with 1.0 M ethanolamine solution (Global Life Sciences Technologies Japan K.K.) at a flow rate of 10 μL/min for 420 seconds. Peptide lysate prepared in DMSO solution to 10 mM was diluted with running buffer to be a final concentration of 10 μM peptide lysate, then peptide solutions of 100 nM, 50 nM, 25 nM, 10 nM, and 5 nM were prepared. Using the above samples, the kinetics of the peptide against hTfR was obtained by SPR measurement.
The kinetic evaluation model was single-cycle kinetics, and curve fitting was performed using Biacore T200 Evaluation Software Version 3.0 (Global Life Science Technologies Japan K.K.). The binding of the peptide to hTfR was evaluated by performing curve fitting on the obtained sensorgram by least squares method and obtaining the KD value.

KD, 1 to 100 nM:
B1
B2
B3
B4
B5
B6
B7
B8
B9
B10
B11
B12
B13
B14
B15
B16
B17
B18
B19
B20
B21
B22
B23
B24
B25
B26
